Data taken from article PMC3788124, “Crystal Structure of the Human Short Coiled Coil Protein and Insights into SCOC-FEZ1 Complex Formation” (PLoS ONE, 2013).

B1: Selenomethionine-labelled Strep-tagged L105M SCOC(78-159) (domain or fragment)
chain: not shown
modifications: selenomethionine-labelled
notes: human SCOC, SwissProt entry Q9UIL1 isoform 1, residues 78-159, with L105M; linker between SCOC and the Strep-tag, as in the wild-type construct; Crystallised by in situ proteolysis with subtilisin (1:2000 w/w), so the chain in the crystal may be shorter; the final model comprises residues 86-147 and the Strep-tag is not visible in the electron density; also called L105M SCOC mutant; SCOC_(78-159) …
B2: C-terminal Strep-tagged SCOC(78-159), wild type (domain or fragment)
chain: not shown
notes: human short coiled coil protein (SCOC), SwissProt entry Q9UIL1 isoform 1, residues 78-159; underlined stretch of the printed construct; linker between SCOC and the Strep-tag in the printed construct; Dimer by SEC-MALLS and native MS; also called short coiled coil protein; Strep-SCOC(78-159); source: E. coli BL21 (DE3), purified (StrepTrap, Superdex 75); also co-expressed with FEZ1(227-290) in E. …
B3: Strep-tagged SCOC(78-159) N125L/N132V (domain or fragment)
chain: not shown
notes: human SCOC, SwissProt entry Q9UIL1 isoform 1, residues 78-159, with N125L and N132V; linker between SCOC and the Strep-tag, as in the wild-type construct; Tetramer by SEC-MALLS and native MS; also called tetrameric core mutant; double core mutant N125L/N132V; source: E. coli BL21 (DE3), purified (StrepTrap, Superdex 75); also co-expressed with FEZ1(227-290) in E. coli
B4: Strep-tagged SCOC(78-159) E93V/K97L (domain or fragment, human)
chain: MAMMNADMDAVDAENQVVLEELTRLINQVLELQHTLEDLSARVDAVKEENLKLKSENQVLGQYIENLMSASSVFQTTDTKSKRKLVPRGS
notes: human SCOC, SwissProt entry Q9UIL1 isoform 1, residues 78-159, with E93V and K97L; linker between SCOC and the Strep-tag, as in the wild-type construct; Trimer by SEC-MALLS and native MS; also called trimeric SCOC mutant; double core mutant E93V/K97L; source: E. coli BL21 (DE3), purified (StrepTrap, Superdex 75); also co-expressed with FEZ1(227-290) in E. coli
B5: Strep-tagged SCOC(78-159) R99E (domain or fragment)
chain: not shown
notes: human SCOC, SwissProt entry Q9UIL1 isoform 1, residues 78-159, with R99E; linker between SCOC and the Strep-tag, as in the wild-type construct; also called R99E surface mutant; source: E. coli BL21 (DE3), purified (StrepTrap, Superdex 75); also co-expressed with FEZ1(227-290) in E. coli
B6: Strep-tagged SCOC(78-159) R117E (domain or fragment)
chain: not shown
notes: human SCOC, SwissProt entry Q9UIL1 isoform 1, residues 78-159, with R117E; linker between SCOC and the Strep-tag, as in the wild-type construct; also called R117E surface mutant; source: E. coli BL21 (DE3), purified (StrepTrap, Superdex 75); also co-expressed with FEZ1(227-290) in E. coli

Columns and labels:
[1] = target: the molecule itself; test: crystal structure; selenomethionine-labelled L105M SCOC(78-159), 3 mg/ml, with subtilisin 1:2000 (w/w) for in situ proteolysis; hanging drops, 20 °C, 100 mM sodium acetate pH 4.6, 0.7 M 1,6-hexanediol, 10 mM CoCl2
[2] = target: the molecule itself; test: SEC-MALLS; SCOC constructs alone; 500 µL of 1.5 mg/ml on Superdex 200 10/300 GL; three measurements for each protein

Row | Protein | binding result [1] | stoichiometry N [2]
1 | B1 | binds | –
2 | B2 | – | 2
3 | B3 | – | 4
4 | B4 | – | 3
5 | B5 | – | 2
6 | B6 | – | 2
